The results in this text go back to patent publication US12006373.

In this test the target is human CD3ε expressed on Jurkat T cells (clone E6-1) as part of TCR-CD3 complexes (human) (UniProt P07766). The experiment in a line: cell-based or functional assay.
Chain of human CD3ε expressed on Jurkat T cells (clone E6-1) as part of TCR-CD3 complexes (human) (P07766 23-207, one chain of several): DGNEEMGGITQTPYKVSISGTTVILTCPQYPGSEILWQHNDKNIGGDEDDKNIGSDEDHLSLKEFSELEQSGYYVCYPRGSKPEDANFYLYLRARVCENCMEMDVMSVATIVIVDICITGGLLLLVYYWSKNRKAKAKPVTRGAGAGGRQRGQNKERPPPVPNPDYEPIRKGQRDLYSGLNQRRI

Substance “biotin anti-human CD3ε (OKT3) antibody coated on M280 streptavidin Dynabeads” had an expansion of Jurkat cells during 48 hours of culture (hemocytometer count) of 1.9 times.
